For one substance, Kd results are on record in paper doi:10.1101/2025.03.09.642192.

Test [1] has as its target purified hexon protein from ChAdOx1 (chimpanzee adenovirus Y25 (ChAdOx1)). Put plainly: SPR. On the technique in general: Surface plasmon resonance follows binding to a sensor surface in real time, without labels.
The target in test [2] is HAdV-C5 hexon protein (HAdV-C5) (UniProt P04133). Put plainly: SPR.
Chain of HAdV-C5 hexon protein (HAdV-C5) (P04133 whole entry): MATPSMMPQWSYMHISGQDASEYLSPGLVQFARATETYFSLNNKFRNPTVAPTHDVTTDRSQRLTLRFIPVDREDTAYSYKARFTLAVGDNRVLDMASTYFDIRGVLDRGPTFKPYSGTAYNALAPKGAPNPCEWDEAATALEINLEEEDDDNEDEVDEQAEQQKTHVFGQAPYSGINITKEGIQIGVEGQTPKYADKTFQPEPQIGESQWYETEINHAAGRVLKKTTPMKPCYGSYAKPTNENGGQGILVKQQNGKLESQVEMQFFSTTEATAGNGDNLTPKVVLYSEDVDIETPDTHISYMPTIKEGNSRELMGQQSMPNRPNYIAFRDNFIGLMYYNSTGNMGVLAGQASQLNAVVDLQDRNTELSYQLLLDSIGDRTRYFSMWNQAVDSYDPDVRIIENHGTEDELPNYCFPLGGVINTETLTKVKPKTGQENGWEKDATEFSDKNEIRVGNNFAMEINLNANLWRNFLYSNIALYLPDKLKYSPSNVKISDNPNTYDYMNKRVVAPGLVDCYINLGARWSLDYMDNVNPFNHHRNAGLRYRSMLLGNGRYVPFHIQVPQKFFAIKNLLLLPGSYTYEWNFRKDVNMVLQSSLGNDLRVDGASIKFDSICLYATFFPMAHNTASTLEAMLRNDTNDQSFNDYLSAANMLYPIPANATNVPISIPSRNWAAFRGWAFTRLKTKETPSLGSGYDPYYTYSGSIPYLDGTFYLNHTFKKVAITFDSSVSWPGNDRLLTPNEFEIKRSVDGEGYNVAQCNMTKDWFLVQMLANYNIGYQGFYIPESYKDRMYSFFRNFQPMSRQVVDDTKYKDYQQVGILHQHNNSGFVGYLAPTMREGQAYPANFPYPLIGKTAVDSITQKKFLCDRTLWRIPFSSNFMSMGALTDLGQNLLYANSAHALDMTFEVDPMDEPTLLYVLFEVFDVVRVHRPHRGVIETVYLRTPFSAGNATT

As for “platelet factor 4 (PF4) (natural protein)”, the Kd in test [1] is 296 nM; in test [2], 767 nM.

For orientation: Kd means a measure of binding affinity in units of concentration.
